Measured values reported in article PMC9391305.

Target: endogenous PKM2 of murine PDA^T and PDA^M cells (mouse (endogenous in PDA^T and PDA^M cells)) (UniProt P52480)
Experiment: cross-linking

endogenous PKM2 of murine PDA^T and PDA^M cells, P52480 1-531 (enzyme; other documents disagree on this pair), sequence (P52480 whole entry): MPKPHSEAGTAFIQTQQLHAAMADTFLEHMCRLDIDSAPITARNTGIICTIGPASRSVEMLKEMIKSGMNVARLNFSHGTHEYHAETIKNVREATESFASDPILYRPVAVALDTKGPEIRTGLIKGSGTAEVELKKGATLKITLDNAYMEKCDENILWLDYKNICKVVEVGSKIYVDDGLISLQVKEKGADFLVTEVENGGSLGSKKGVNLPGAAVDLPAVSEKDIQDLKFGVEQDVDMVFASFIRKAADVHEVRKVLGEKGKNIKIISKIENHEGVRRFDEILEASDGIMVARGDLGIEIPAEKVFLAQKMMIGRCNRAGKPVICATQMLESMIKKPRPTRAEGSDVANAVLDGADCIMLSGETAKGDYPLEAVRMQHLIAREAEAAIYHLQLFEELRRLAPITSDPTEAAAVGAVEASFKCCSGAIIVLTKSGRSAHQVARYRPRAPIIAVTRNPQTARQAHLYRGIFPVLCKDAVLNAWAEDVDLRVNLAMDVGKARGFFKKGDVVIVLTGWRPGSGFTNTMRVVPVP

Substance: endogenous PKM2 of murine PDA^T and PDA^M cells, P52480 1-531 (enzyme; other documents disagree on this pair)
- stoichiometry N: 4
